Reference: article PMC4288178, “CRISPR RNA binding and DNA target recognition by purified Cascade complexes from Escherichia coli”

T1: Cascade- (crRNA-free Cse1-Cse2-Cas7-Cas5-Cas6e) (Escherichia coli (K12; expressed in …, UniProt Q46901;P76632;Q46899;Q46898;Q46897 1-502;1-160;1-363;1-224;1-199)
T1 sequence 1: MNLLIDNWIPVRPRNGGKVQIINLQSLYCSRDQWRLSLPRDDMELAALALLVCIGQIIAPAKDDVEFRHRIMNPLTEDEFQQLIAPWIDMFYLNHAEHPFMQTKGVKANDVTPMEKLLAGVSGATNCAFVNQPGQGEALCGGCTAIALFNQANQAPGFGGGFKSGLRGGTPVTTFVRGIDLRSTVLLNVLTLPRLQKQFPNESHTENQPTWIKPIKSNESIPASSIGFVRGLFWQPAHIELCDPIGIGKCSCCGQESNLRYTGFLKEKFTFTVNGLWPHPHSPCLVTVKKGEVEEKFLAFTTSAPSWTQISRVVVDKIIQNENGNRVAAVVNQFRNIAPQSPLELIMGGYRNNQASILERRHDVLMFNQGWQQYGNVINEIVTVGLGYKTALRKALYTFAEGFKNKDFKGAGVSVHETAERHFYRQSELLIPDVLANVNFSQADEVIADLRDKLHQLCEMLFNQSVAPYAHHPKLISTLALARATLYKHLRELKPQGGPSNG
T1 sequence 2: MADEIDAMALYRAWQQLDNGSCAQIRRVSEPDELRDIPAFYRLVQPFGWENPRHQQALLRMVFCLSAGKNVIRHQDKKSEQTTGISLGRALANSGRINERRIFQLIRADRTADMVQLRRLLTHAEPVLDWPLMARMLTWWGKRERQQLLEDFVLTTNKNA
T1 sequence 3: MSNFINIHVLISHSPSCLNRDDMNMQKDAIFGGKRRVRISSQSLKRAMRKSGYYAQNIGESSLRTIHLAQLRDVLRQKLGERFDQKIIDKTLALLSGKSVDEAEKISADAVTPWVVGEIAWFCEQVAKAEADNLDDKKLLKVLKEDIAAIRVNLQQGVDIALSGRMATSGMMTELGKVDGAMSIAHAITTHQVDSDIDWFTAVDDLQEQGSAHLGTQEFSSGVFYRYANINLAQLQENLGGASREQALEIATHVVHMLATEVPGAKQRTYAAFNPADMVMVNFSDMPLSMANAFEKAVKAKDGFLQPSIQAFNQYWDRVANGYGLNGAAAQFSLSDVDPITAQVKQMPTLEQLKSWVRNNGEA
T1 sequence 4: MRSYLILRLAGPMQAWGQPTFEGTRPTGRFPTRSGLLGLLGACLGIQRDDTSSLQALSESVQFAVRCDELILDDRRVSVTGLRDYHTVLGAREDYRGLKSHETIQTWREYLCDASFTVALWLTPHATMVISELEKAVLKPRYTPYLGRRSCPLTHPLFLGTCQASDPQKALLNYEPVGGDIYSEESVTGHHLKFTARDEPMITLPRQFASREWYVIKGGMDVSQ
T1 sequence 5: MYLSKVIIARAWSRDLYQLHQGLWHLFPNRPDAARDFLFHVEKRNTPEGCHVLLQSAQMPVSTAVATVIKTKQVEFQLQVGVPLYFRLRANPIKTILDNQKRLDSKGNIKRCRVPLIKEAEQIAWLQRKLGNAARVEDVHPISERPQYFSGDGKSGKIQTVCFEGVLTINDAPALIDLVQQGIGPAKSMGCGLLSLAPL


molecular target: T1, Cascade- (crRNA-free …); assay: EMSA; EMSA: 20 mM Tris-HCl pH 8, 20 mM NaCl, 10 nM 32P probe, 30 min at 30 or 37 C, 6% native PAGE; loading 10 min at 30 C with crRNA (0.5 uM in Fig 3). Kd values are printed only in Fig 5A (not in the material); settings: protein: recombinant; tags: N-terminal 6His on Cse1 (CasA); copies: 1;2;6;1;1; label: 5'-32P; 3' handle hairpin

Binder	binding result
crRNA2 (-8/+21), no cyclic phosphate (structured_RNA, no 2',3'-cyclic phosphate) RNA: AUAAACCGCUGUCUUUCGCUGCUGAGGGUGACGAUCCGCCGAGUUCCCCGCGCCAGCGGGG	binds

same assay, conditions: protein: recombinant; tags: N-terminal 6His on Cse1 (CasA); copies: 1;2;6;1;1; label: DNA 5'-32P; guide + blunt duplex

Binder	binding result
crRNA2 + g8 dsDNA (mixed, no 2',3'-cyclic phosphate on crRNA) RNA: AUAAACCGCUGUCUUUCGCUGCUGAGGGUGACGAUCCGCCGAGUUCCCCGCGCCAGCGGGG DNA 1: CAGGGAGTTAAAGGCCGCTTTTGCGGGATCGTCACCCTCAGCAGCGAAAGACAGCATCGGAACGAGGGTAGCAACGGCT DNA 2: AGCCGTTGCTACCCTCGTTCCGATGCTGTCTTTCGCTGCTGAGGGTGACGATCCCGCAAAAGCGGCCTTTAACTCCCTG	binds
crRNA7 (-7/+5) + g8 dsDNA (mixed) RNA: UAAACCGCUGUCUUUCGCUGCUGAGGGUGACGAUCCGCCGAGUU DNA 1: CAGGGAGTTAAAGGCCGCTTTTGCGGGATCGTCACCCTCAGCAGCGAAAGACAGCATCGGAACGAGGGTAGCAACGGCT DNA 2: AGCCGTTGCTACCCTCGTTCCGATGCTGTCTTTCGCTGCTGAGGGTGACGATCCCGCAAAAGCGGCCTTTAACTCCCTG	no binding
crRNA7 (-8/+1G) + g8 dsDNA (mixed) RNA: AUAAACCGCUGUCUUUCGCUGCUGAGGGUGACGAUCCGCCG DNA 1: CAGGGAGTTAAAGGCCGCTTTTGCGGGATCGTCACCCTCAGCAGCGAAAGACAGCATCGGAACGAGGGTAGCAACGGCT DNA 2: AGCCGTTGCTACCCTCGTTCCGATGCTGTCTTTCGCTGCTGAGGGTGACGATCCCGCAAAAGCGGCCTTTAACTCCCTG	binds
poly-A handle crRNA9 + g8 dsDNA (mixed) RNA: AAAAAAAACUGUCUUUCGCUGCUGAGGGUGACGAUCCGCCGAGUU DNA 1: CAGGGAGTTAAAGGCCGCTTTTGCGGGATCGTCACCCTCAGCAGCGAAAGACAGCATCGGAACGAGGGTAGCAACGGCT DNA 2: AGCCGTTGCTACCCTCGTTCCGATGCTGTCTTTCGCTGCTGAGGGTGACGATCCCGCAAAAGCGGCCTTTAACTCCCTG	no binding
crRNA7 (-8/+1A) + g8 dsDNA (mixed) RNA: AUAAACCGCUGUCUUUCGCUGCUGAGGGUGACGAUCCGCCA DNA 1: CAGGGAGTTAAAGGCCGCTTTTGCGGGATCGTCACCCTCAGCAGCGAAAGACAGCATCGGAACGAGGGTAGCAACGGCT DNA 2: AGCCGTTGCTACCCTCGTTCCGATGCTGTCTTTCGCTGCTGAGGGTGACGATCCCGCAAAAGCGGCCTTTAACTCCCTG	binds
poly-C handle crRNA + g8 dsDNA (mixed) RNA: CCCCCCCCCUGUCUUUCGCUGCUGAGGGUGACGAUCCGCCGAGUU DNA 1: CAGGGAGTTAAAGGCCGCTTTTGCGGGATCGTCACCCTCAGCAGCGAAAGACAGCATCGGAACGAGGGTAGCAACGGCT DNA 2: AGCCGTTGCTACCCTCGTTCCGATGCTGTCTTTCGCTGCTGAGGGTGACGATCCCGCAAAAGCGGCCTTTAACTCCCTG	no binding
crRNA7 (-6/+5) + g8 dsDNA (mixed) RNA: AAACCGCUGUCUUUCGCUGCUGAGGGUGACGAUCCGCCGAGUU DNA 1: CAGGGAGTTAAAGGCCGCTTTTGCGGGATCGTCACCCTCAGCAGCGAAAGACAGCATCGGAACGAGGGTAGCAACGGCT DNA 2: AGCCGTTGCTACCCTCGTTCCGATGCTGTCTTTCGCTGCTGAGGGTGACGATCCCGCAAAAGCGGCCTTTAACTCCCTG	no binding
crRNA7 (-8/+1U) + g8 dsDNA (mixed) RNA: AUAAACCGCUGUCUUUCGCUGCUGAGGGUGACGAUCCGCCU DNA 1: CAGGGAGTTAAAGGCCGCTTTTGCGGGATCGTCACCCTCAGCAGCGAAAGACAGCATCGGAACGAGGGTAGCAACGGCT DNA 2: AGCCGTTGCTACCCTCGTTCCGATGCTGTCTTTCGCTGCTGAGGGTGACGATCCCGCAAAAGCGGCCTTTAACTCCCTG	binds
crRNA7 (-8/+1C) + g8 dsDNA (mixed) RNA: AUAAACCGCUGUCUUUCGCUGCUGAGGGUGACGAUCCGCCC DNA 1: CAGGGAGTTAAAGGCCGCTTTTGCGGGATCGTCACCCTCAGCAGCGAAAGACAGCATCGGAACGAGGGTAGCAACGGCT DNA 2: AGCCGTTGCTACCCTCGTTCCGATGCTGTCTTTCGCTGCTGAGGGTGACGATCCCGCAAAAGCGGCCTTTAACTCCCTG	binds

molecular target: T1, Cascade- (crRNA-free …); assay: EMSA; affinity slightly lower than crRNA1; EMSA: 20 mM Tris-HCl pH 8, 20 mM NaCl, 10 nM 32P probe, 30 min at 30 or 37 C, 6% native PAGE; loading 10 min at 30 C with crRNA (0.5 uM in Fig 3). Kd values are printed only in Fig 5A (not in the material); settings: protein: recombinant; tags: N-terminal 6His on Cse1 (CasA); copies: 1;2;6;1;1; label: 5'-32P

Binder	binding result
AUAAACCGCUGUCUUUCGCUGCUGAGGGUGACGAUCCGCCGAGUU (ssRNA) [crRNA7 (-8/+5)]	binds

same assay, conditions: protein: recombinant; tags: N-terminal 6His on Cse1 (CasA); copies: 1;2;6;1;1; label: DNA 5'-32P; guide + blunt duplex

Binder	binding result
crRNA7 (-8/+5) + g8 dsDNA (mixed) RNA: AUAAACCGCUGUCUUUCGCUGCUGAGGGUGACGAUCCGCCGAGUU DNA 1: CAGGGAGTTAAAGGCCGCTTTTGCGGGATCGTCACCCTCAGCAGCGAAAGACAGCATCGGAACGAGGGTAGCAACGGCT DNA 2: AGCCGTTGCTACCCTCGTTCCGATGCTGTCTTTCGCTGCTGAGGGTGACGATCCCGCAAAAGCGGCCTTTAACTCCCTG	binds

molecular target: T1, Cascade- (crRNA-free …); assay: EMSA; detectable binding; EMSA: 20 mM Tris-HCl pH 8, 20 mM NaCl, 10 nM 32P probe, 30 min at 30 or 37 C, 6% native PAGE; loading 10 min at 30 C with crRNA (0.5 uM in Fig 3). Kd values are printed only in Fig 5A (not in the material); settings: protein: recombinant; tags: N-terminal 6His on Cse1 (CasA); copies: 1;2;6;1;1; label: 5'-32P

Binder	binding result
crRNA12 (-8/+11) (ssRNA) RNA: AUAAACCGCUGUCUUUCGCUGCUGAGGGUGACGAUCCGCCGAGUUCCCCGC	binds
AUAAACCGCUGUCUUUCGCUGCUGAGGGUGACGAUCCGCCGAGUUCCCC (ssRNA) [crRNA13 (-8/+9)]	binds
crRNA11 (-8/+18) (ssRNA) RNA: AUAAACCGCUGUCUUUCGCUGCUGAGGGUGACGAUCCGCCGAGUUCCCCGCGCCAGCG	binds
